Laboratory results published in article PMC1474052.

How the values were obtained:
[1] = target: BPV-1 E1 helicase domain F464A (bovine papillomavirus type 1 (BPV-1)); assay: SEC
[2] = target: BPV-1 E1 helicase domain F464W (bovine papillomavirus type 1 (BPV-1)); assay: SEC
[3] = target: BPV-1 E1 helicase domain H507A (bovine papillomavirus type 1 (BPV-1)); assay: SEC
[4] = target: BPV-1 E1 helicase domain K506A (bovine papillomavirus type 1 (BPV-1)); assay: SEC
[5] = target: BPV-1 E1 helicase domain R505E (bovine papillomavirus type 1 (BPV-1)); assay: SEC
[6] = target: BPV-1 E1 helicase domain W465F (bovine papillomavirus type 1 (BPV-1)); assay: SEC
[7] = target: BPV-1 E1 helicase domain, wild type (bovine papillomavirus type 1 (BPV-1)); assay: SEC
E1HD wild-type = E1HD wild-type (Bovine papillomavirus 1 (BPV-1), UniProt P03116 299-605); assay: EMSA

BPV-1 E1 helicase domain F464A (domain or fragment)
stoichiometry N [1]: 6

BPV-1 E1 helicase domain F464W (domain or fragment)
stoichiometry N [2]: 6

BPV-1 E1 helicase domain H507A (domain or fragment)
stoichiometry N [3]: 6

BPV-1 E1 helicase domain K506A (domain or fragment)
stoichiometry N [4]: 6

BPV-1 E1 helicase domain R505E (domain or fragment)
stoichiometry N [5]: 6

BPV-1 E1 helicase domain W465F (domain or fragment)
stoichiometry N [6]: 6

BPV-1 E1 helicase domain, wild type (domain or fragment)
stoichiometry N [7]: 6

B1: 30mer ssDNA (ssDNA)
DNA: TGCTCTAGAATGCAAACTACTCTGAACGAG
binding result (E1HD wild-type): binds
